# Reference: the nanobody polyreactivity screen of Harvey et al. (2022)
# Test: yeast display, Sf9 membrane polyspecificity reagent, FACS + sequencing; frameworks hold sequencing errors
# Summary of the method: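 Genes from sorted yeast were amplified by colony PCR, read by MiSeq 2 × 250 sequencing and filtered on CDR length. These cells carried a synthetic nanobody library in Saccharomyces cerevisiae BJ5465 and were sorted by FACS into low and high (top ~1%) gates on anti-HA and streptavidin fluorescence. Polyreactivity is labelled according to the gate of origin.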
row,Sequence,polyreactivity (PSR sort gate)
1,QVQLVESGGGLVQAGGSLRLSCAASGSTFRVNAMGWYRQAPGKERELVAAISGSGSGTYYADSVKGRFTISRDNAKNTVYLQMNSLKPEDTAVYYCAKVPKSRGYVGGMDYWGQGTQVTVSS,low polyreactivity
2,QVQLVESGGGLVQAGGSLRLSCAASGSTFRVNGMGWYRQAPGKERELVAVISWSGGSTYYADSVKGRFTISRDNAKNSVYLQMNSLKPEDTAVYYCAAKVKAGAGYHYDYYWGQGTQVTVSS,high polyreactivity
3,QVQLVESGGGLVQAGGSLRLSCAASGSTFRVNVMGWYRQATGKERELVAAITTSGGSTYYADSVKGRFSISRDNAQNTVYFQMNSLKPEDTAVYYCNTTYPSGWGPDMDYWGQGTQVTVSS,low polyreactivity
4,QVQLVESGGGLVQAGGSLRLSCAASGSTFRVYAMGGDRQAPGKERELVAAITYSGGSTYYADSVKGRFTISRDNAKNTVYLQMNSLKPVDTAVYYCAADGYYGGYNYWGQGTQVTVSS,low polyreactivity
5,QVQLVESGGGLVQAGGSLRLSCAASGSTFRVYAMGWYRQAPGKESELVATISWGGGRTYYADSVKGRFTISRDNAKNTVYLLMNSLKPEDTAVYYCAADQRWTTDQPTAGDYWGQGTQVTVSS,low polyreactivity
6,QVQLVESGGGLVQAGGSLRLSCAASGSTFRVYAMGWYRQAPRKERELVAAISKSGVSTYYADSVKGRFTISRDNAMNTVYLQMNSLKPEDTAVYYCPVFLGYSRKYDYWGQGTQVTVSS,high polyreactivity
7,QVQLVESGGGLVQAGGSLRLSCAASGSTFRWYAMGWYRQAPGTERELVAAISVSTGSTYYADSVKGRFTISRDNAKNTVYVQMNTLKPEDTGVYYCNKVYGWRQFDYWGQGTQVTVSS,high polyreactivity
8,QVQLVESGGGLVQAGGSLRLSCAASGSTFRWYTMGWYRQAPGKERELVATISSSTDITYYADSVKGRFTISRDNAKNTVYLQMNSLKPEDTAVYYCAARRVYHYRYYYWGQGTQVTVSS,high polyreactivity
9,QVQLVESGGGLVQAGGSLRLSCAASGSTFRYNAMGWYRQAPGKERELVAAITSGGTTNYADSVKGRFTISRDNAMNTVYLQMNILKPEDTAVYYCGKRGYYWTNLLYFLGYDYWGQGTQVTVSS,low polyreactivity
10,QVQLVESGGGLVQAGGSLRLSCAASGSTFRYNDMGWYIQAPGKERELVDAITRSDSTNYADSVKGRFTISRDNAKNTVYLQMNSLKPEDTAVYYCAARRHYTYGNGPSRGGQMDYWGQGTQVTVSS,high polyreactivity
11,QVQLVESGGGLVQAGGSLRLSCAASGSTFRYNTMGWYRQAPGKEMELVARITSVGSTNYADSVKGRFTISRDNAKNTVYFQMNSLKPEDTAVYYCATTRPIRRTSARYNYWGQGTQVTVSS,low polyreactivity
12,QVQLVESGGGLVQAGGSLRLSCAASGSTFRYNTMGWYRQAPGKERELVAAINISSSSTYYADSVKGRFTISRDNAKNTVYLQMNSLKPEDTAVYYCAKRDYVPIATDENDDYWGQGTQVTVSS,low polyreactivity
13,QVQLVESGGGLVQAGGSLRLSCAASGSTFRYYAMGWSRQAPGKERELVAAISRSGTSTYYADSVKGRFTISRDNAKNTVYLQMNSLKPEDTAVYYCAADWHSKIGKGYDYWGQGTQVTVSS,high polyreactivity
14,QVQLVESGGGLVQAGGSLRLSCAASGSTFRYYAMGWYRLAPGKERELVAAITASGTSTYYADSVKGRFTISRDNAKNTVYLQMNSLKPEDTAVYYCAARWRYGYYWGQGTQVTVSS,high polyreactivity
15,QVQLVESGGGLVQAGGSLRLSCAASGSTFRYYAMGWYRQAPGKERELVAAIDRSGGNTYYADSVKGRFTISRDNAKNTVYLQMYSLKPEDTAVYYCNTASWRAQYYYWGQGTQVTVSS,high polyreactivity
16,QVQLVESGGGLVQAGGSLRLSCAASGSTFRYYAMGWYRQAPGKERELVAAIRSGGGTYYADSVKGRFTISRDNAKTTVYLQMNSLKPEDTAVYYCAARSYSRRVSYYYWGQGTQVTVSS,high polyreactivity
17,QVQLVESGGGLVQAGGSLRLSCAASGSTFRYYAMGWYRQAPGKERELVAAISARGTSTYYADSVKGRFTISRDNAKNTVYLQMNSLKPEDTAVYYCNDYLHATEYDYWGQGTQVTVSS,high polyreactivity
18,QVQLVESGGGLVQAGGSLRLSCAASGSTFRYYAMGWYRQAPGKERELVAAISGSGGRTYYADSVKGRFTISRDNAKNTVYLQMYSLKPEDTAVYYCNTRGRRTDYDYWGQGTQVTVSS,high polyreactivity
19,QVQLVESGGGLVQAGGSLRLSCAASGSTFRYYAMGWYRQAPGKERELVAAISRSGTSTYYADSVKGRFTISRDNAKKTVYLQMNSLKPEDTAVYYCAADWHSKIGKGYDYWGQGTQVTVSS,high polyreactivity
20,QVQLVESGGGLVQAGGSLRLSCAASGSTFRYYAMGWYRQAPGKERELVAAITKNGGSTYYADSVKGRFTISRDNAKNTVYLQMNSLKPEDTAVYYCADQYSYSGWYYVSYYYWGQGTQVTVSS,high polyreactivity
21,QVQLVESGGGLVQAGGSLRLSCAASGSTFRYYAMGWYRQAPGKERELVAGICSGGTTKYADSVKGRFTISRDNAKNTVYLQMNSLKPEDSAVYYCAARFRRTRVTYYYWGQGTQVTVSS,high polyreactivity

row,Sequence,polyreactivity (PSR sort gate)
1,QVQLVESGGGLVQAGGSLRLSCAASGSTFRYYAMGWYRQAPGKERELVAVISTSGNTYYADSVKGRFTISRDNAKNTVYLQMNSLKPEDTAVYYCAARGVGGQISQEYDYWGQGTQVTVSS,low polyreactivity
2,QVQLVESGGGLVQAGGSLRLSCAASGSTFRYYAMGWYRQAPGKEREMVAAISTSGGRTYYADSVKGRFTISRDNAKNTVYLQLNSLKPEDTAVYYCNARESRGYSYQTWKYYYWGQGTQVTVSS,high polyreactivity
3,QVQLVESGGGLVQAGGSLRLSCAASGSTFRYYGMGWYRQAPGKERELVAAISTGGRTNYADSVKGRFTISRDNAKNTVYLQMNSLKPEDTAVYYCAADFLSPAYRPSWYRFDYWGQGTQVTVSS,low polyreactivity
4,QVQLVESGGGLVQAGGSLRLSCAASGSTFRYYGMGWYRQAPGKERELVADITSGGTTDYADSVKGRFTISRDNAKNTVYLQMNSLKPEDTAVYYCAAGRWYKRQSTWGFGLDHDYWGQGTQVTVSS,low polyreactivity
5,QVQLVESGGGLVQAGGSLRLSCAASGSTFRYYTMGWYRQAPGKEREFVASISRSGGSTYYADSVKGRFTISRDNAKNTVYLQMNSLKPEDTAVYYCNAVKGSYSRSQGNEYWGQGTQVTVSS,high polyreactivity
6,QVQLVESGGGLVQAGGSLRLSCAASGSTFRYYTMGWYRQAPGKERELVAAISWSGGITYYADSVKGRFTISRDNAKNTVYLQMNSLKPEDTAVYYCAADWWAWRAYYYWGQGTQVTVSS,high polyreactivity
7,QVQLVESGGGLVQAGGSLRLSCAASGSTFRYYTMGWYRQAPGKERELVAAITYSGGSTYYADSVKGRFTISRDNAKNTVYLQMNSLKPEDTAVYYCAKRWSQPKYDYWGQGTQVTVSS,high polyreactivity
8,QVQLVESGGGLVQAGGSLRLSCAASGSTFRYYTMGWYRQAPGKERELVASISRSGSTSYADSVKGRFTISRDNAKNTVYLLMNSLKPEDTAVYYCARESFFGAYAGYDYWGQGTQVTVSS,low polyreactivity
9,QVQLVESGGGLVQAGGSLRLSCAASGSTFSAKTIGGYRQAPGKEMELVAGITITGDTYYADSVKGRFTISRDNAKNTVYLQMNSLKPEDTAVYYCAAAWYEPATQTGYFEFDYWGQGTQVTVSS,low polyreactivity
10,QVQLVESGGGLVQAGGSLRLSCAASGSTFSANAMGWYRQAPGKERELVAAITYRGGNTYYADSVKGRFTISRDNAKNTVYLQMNSLKPEETAVYYCNRDLRVRYRRLKYGYWGQGTQVTVSS,low polyreactivity
11,QVQLVESGGGLVQAGGSLRLSCAASGSTFSANTMGWYRQAPGKERELVAAISSSGVGTRYADSVKGRFTISRDNAKNTVYLQMNSLKPEDTSVFYCAADYRPTVITRNDYWGQGTQVTVSS,low polyreactivity
12,QVQLVESGGGLVQAGGSLRLSCAASGSTFSAYAMGWYRQAPGKERELVAAISRSGTRTYYADSVKGRFTISRDNAKNNVYLQMNSLKPEDTAVYYCARYAGRLSYRYEYWGQGTQVTVSS,high polyreactivity
13,QVQLVESGGGLVQAGGSLRLSCAASGSTFSAYTMGWYRQAPGKERELVARITNGGSTYYAESVKGRFTISRDNAKNTVYLQMNSLKPEDTAVYYCAAQLGWWGSGYWGQGTQVTLSS,high polyreactivity
14,QVQLVESGGGLVQAGGSLRLSCAASGSTFSDYTMGWFRQAPGKERELVAAITTIGGSTYYADSVKGRFTISRDNAKNTVYLQMNSLKPEDTAVYYCAASYYYPLEYYYWGQGTQVTVSS,low polyreactivity
15,QVQLVESGGGLVQAGGSLRLSCAASGSTFSDYTMGWSRQAPGKDRVLVAALNAGGSTNYADSVKGRFTISRDNAKNTVYLQMNSLKPEDTAVYYSNADSSYLANGYWDPDYTPYDSWGQGTQVTVSS,low polyreactivity
16,QVQLVESGGGLVQAGGSLRLSCAASGSTFSEYVMGWYRQAPGKERELVAAIRSNGGSTYYADSVKGRFTISRDNAKNTVYLQMNSLKPEDTAVYYCNRVYSRRTYNSPLYDYWGQGTQVTVSS,high polyreactivity
17,QVQLVESGGGLVQAGGSLRLSCAASGSTFSFYAMGRYRQAPGKERELVAAISSSGDGTYYADSVKGRFTISRDNAKKTVYLQMNSLKPEDTAVYYCATGSPSGDEWGMDYWGQGTQVTVSS,low polyreactivity
18,QVQLVESGGGLVQAGGSLRLSCAASGSTFSGYAMGWYRHAPGKERELVAAISRRGTSTYYADSVKGRFTISRDNAKNTVYLQMNSLKPEDTAVYYCAARPSGYVIGGYGYWGQGTQVTVSS,high polyreactivity
19,QVQLVESGGGLVQAGGSLRLSCAASGSTFSGYAMGWYRQAPGKERDLVAAITKSGGRTYYADSVKGRFTISRDNAQNTVYLQMNSLKQEDTAVYYCAKAYPGTYREYDYWGQGTQVTVSS,high polyreactivity
20,QVQLVESGGGLVQAGGSLRLSCAASGSTFSGYAMGWYRQAPGKERELVAAITSGGITNYADSVKGRFTISLDNAKNTLYLQMNSLKPEDTAVYYCAKSVSGIGVGYDYWGQGTQVTVSS,low polyreactivity
